According to patent publication US20250002610A1 (Genmab, published 2025):
Numbering of substitutions follows the chain as printed.

B1: BisG1-FAPα-FEAL/b12-FEAR (bispecific antibody, human IgG1, kappa)
heavy 1: EVQLLESGGGLVQPGGSPRLSCEASGFTFSSYALSWVRQAPGKGLEWVSAISGSGGGRYYADSVKGRFTISRDNSKNTLFLQMNSLRAEDTAVYYCAKEGYSSSGTYWDHWGQGTLVTVSSASTKGPSVFPLAPSSKSTSGGTAALGCLVKDYFPEPVTVSWNSGALTSGVHTFPAVLQSSGLYSLSSVVTVPSSSLGTQTYICNVNHKPSNTKVDKRVEPKSCDKTHTCPPCPAPEFEGGPSVFLFPPKPKDTLMISRTPEVTCVVVAVSHEDPEVKFNWYVDGVEVHNAKTKPREEQYNSTYRVVSVLTVLHQDWLNGKEYKCKVSNKALPAPIEKTISKAKGQPREPQVYTLPPSREEMTKNQVSLTCLVKGFYPSDIAVEWESNGQPENNYKTTPPVLDSDGSFLLYSKLTVDKSRWQQGNVFSCSVMHEALHNHYTQKSLSLSPG
light 1: AIQMTQSPSSVSASVGDRVTITCRASQGVSSWLAWYQQKPGRAPKLLIYVASTLQSGVPSRFSGSGSGTDFTLTINSLQPEDFATYYCQQANSFPPTFGQGTRLEMKRTVAAPSVFIFPPSDEQLKSGTASVVCLLNNFYPREAKVQWKVDNALQSGNSQESVTEQDSKDSTYSLSSTLTLSKADYEKHKVYACEVTHQGLSSPVTKSFNRGEC
heavy 2: QVQLVQSGAEVKKPGASVKVSCQASGYRFSNFVIHWVRQAPGQRFEWMGWINPYNGNKEFSAKFQDRVTFTADTSANTAYMELRSLRSADTAVYYCARVGPYSWDDSPQDNYYMDVWGKGTTVIVSSASTKGPSVFPLAPSSKSTSGGTAALGCLVKDYFPEPVTVSWNSGALTSGVHTFPAVLQSSGLYSLSSVVTVPSSSLGTQTYICNVNHKPSNTKVDKRVEPKSCDKTHTCPPCPAPEFEGGPSVFLFPPKPKDTLMISRTPEVTCVVVAVSHEDPEVKFNWYVDGVEVHNAKTKPREEQYNSTYRVVSVLTVLHQDWLNGKEYKCKVSNKALPAPIEKTISKAKGQPREPQVYTLPPSREEMTKNQVSLTCLVKGFYPSDIAVEWESNGQPENNYKTTPPVLDSDGSFFLYSRLTVDKSRWQQGNVFSCSVMHEALHNHYTQKSLSLSPG
light 2: EIVLTQSPGTLSLSPGERATFSCRSSHSIRSRRVAWYQHKPGQAPRLVIHGVSNRASGISDRFSGSGSGTDFTLTITRVEPEDFALYYCQVYGASSYTFGQGTKLERKRTVAAPSVFIFPPSDEQLKSGTASVVCLLNNFYPREAKVQWKVDNALQSGNSQESVTEQDSKDSTYSLSSTLTLSKADYEKHKVYACEVTHQGLSSPVTKSFNRGEC
notes: Fab-arm exchange of IgG1-FAPα-FEAL and IgG1-b12-FEAR
B2: BisG1-b12-FERL/DR4-FERR (bispecific antibody, human IgG1, kappa, lambda)
heavy 1: B1 heavy 2 with G246R, A275D, F415L, R419K
light 1: B1 light 2
heavy 2: QVQLQESGPGLVKPSGTLSLTCAVSGGSISSYSWWSWIRQPPGKGLEWIGELYHSGSTNYNPSLKSRVTISVDKSKNQFSLKLRSVTAADTAVYYCVRGVATIDYWGQGTLVTVSSASTKGPSVFPLAPSSKSTSGGTAALGCLVKDYFPEPVTVSWNSGALTSGVHTFPAVLQSSGLYSLSSVVTVPSSSLGTQTYICNVNHKPSNTKVDKRVEPKSCDKTHTCPPCPAPEFERGPSVFLFPPKPKDTLMISRTPEVTCVVVDVSHEDPEVKFNWYVDGVEVHNAKTKPREEQYNSTYRVVSVLTVLHQDWLNGKEYKCKVSNKALPAPIEKTISKAKGQPREPQVYTLPPSREEMTKNQVSLTCLVKGFYPSDIAVEWESNGQPENNYKTTPPVLDSDGSFFLYSRLTVDKSRWQQGNVFSCSVMHEALHNHYTQKSLSLSPG
light 2: QSALTQPPSASGSPGQSVTISCTGTSSDVGGYNFVSWYQQDPGKAPKLLIYEVTKRPSGVPDRFSGSKSGNTASLTVSGLQAEDEADYYCSSYAGSNNVMFGGGTKLTVLGQPKAAPSVTLFPPSSEELQANKATLVCLISDFYPGAVTVAWKADSSPVKAGVETTTPSKQSNNKYAASSYLSLTPEQWKSHRSYSCQVTHEGSTVEKTVAPTECS
notes: Fab-arm exchange of IgG1-b12-FERL and IgG1-DR4-FERR; also called bsIgG1-ctrl-FERLxDR4-FERR
B3: IgG1-FAPα-FERL (antibody)
heavy: B1 heavy 1 with G240R, A269D
light: B1 light 1
notes: Bivalent monoclonal IgG1 kappa
B4: IgG1-DR4-FERR (antibody, V domains shown)
VH: QVQLQESGPGLVKPSGTLSLTCAVSGGSISSYSWWSWIRQPPGKGLEWIGELYHSGSTNYNPSLKSRVTISVDKSKNQFSLKLRSVTAADTAVYYCVRGVATIDYWGQGTLVTVSS
VL: QSALTQPPSASGSPGQSVTISCTGTSSDVGGYNFVSWYQQDPGKAPKLLIYEVTKRPSGVPDRFSGSKSGNTASLTVSGLQAEDEADYYCSSYAGSNNVMFGGGTKLTVLG
notes: Bivalent monoclonal IgG1 lambda

Key:
[1] = target: T1, human FAPα (Fibroblast activation protein alpha), cell surface expressed (human, UniProt Q12884 1-760); experiment: flow cytometry, Expi293F cells expressing human FAPα, n = 3
T1 construct: Endogenous on human lung fibroblasts and CAFs
T1 sequence: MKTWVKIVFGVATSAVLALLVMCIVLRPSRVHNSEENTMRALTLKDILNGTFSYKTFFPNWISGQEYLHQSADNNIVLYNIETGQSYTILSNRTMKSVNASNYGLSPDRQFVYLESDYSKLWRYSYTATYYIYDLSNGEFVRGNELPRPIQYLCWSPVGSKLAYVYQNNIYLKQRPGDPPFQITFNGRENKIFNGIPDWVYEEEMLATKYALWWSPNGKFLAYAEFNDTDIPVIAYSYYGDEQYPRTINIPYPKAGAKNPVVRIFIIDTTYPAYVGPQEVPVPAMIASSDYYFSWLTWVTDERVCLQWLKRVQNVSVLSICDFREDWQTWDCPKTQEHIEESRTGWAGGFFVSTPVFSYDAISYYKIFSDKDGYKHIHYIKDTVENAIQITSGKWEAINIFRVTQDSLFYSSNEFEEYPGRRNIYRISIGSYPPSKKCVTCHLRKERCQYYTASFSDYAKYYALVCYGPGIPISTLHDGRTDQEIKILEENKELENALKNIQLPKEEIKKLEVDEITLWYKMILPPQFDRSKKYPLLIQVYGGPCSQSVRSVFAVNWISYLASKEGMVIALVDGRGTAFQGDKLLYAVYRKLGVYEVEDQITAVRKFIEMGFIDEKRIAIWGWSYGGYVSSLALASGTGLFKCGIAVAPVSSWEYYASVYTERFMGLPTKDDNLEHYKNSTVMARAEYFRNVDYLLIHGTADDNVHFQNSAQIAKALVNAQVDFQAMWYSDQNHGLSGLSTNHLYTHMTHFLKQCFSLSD
Method: (§1) Binding of BisG1-FAPα-FERL/DR4-FERR, BisG1-FAPα-FEAL/b12-FEAR and IgG1-FAPα-FERL to FAPα of species commonly used for nonclinical toxicology studies was assessed by flow cytometry using Expi293F cells transiently expressing FAPα from different animal species. IgG1-b12 was included as negative control.
(§2) Expi293F cells expressing recombinant FAPα from various species (human, cynomolgus monkey, dog, pig, rat or mouse) were seeded (20,000 cells/well) in 96-Well round bottom plates (Greiner Bio-one, Cat #650101). Antibody dilutions were prepared using FACS buffer, consisting of PBS (Capricorn Scientific, Cat #PBS-10XA, diluted to 1×PBS in distilled water)+1% BSA (Roche, Cat #10735086001)+0.02% Sodium Azide (Bio-World, Cat #41920044-3). Plates were centrifuged, supernatant was removed, and cells were resuspended in 100 μL of antibody dilutions (concentration range 30-0.00017 μg/mL with three-fold serial dilutions using FACS buffer) of BisG1-FAPα-FERL/DR4-FERR, BisG1-FAPα-FEAL/b12-FEAR, IgG1-FAPα-FERL and IgG1-b12 and incubated for 30 min at 4° C. […] After 30 min incubation at 4° C., cells were washed with FACS buffer and resuspended in FACS buffer supplemented with TO-PRO-3 Iodide viability marker (Invitrogen, Cat #T3605, diluted 1:4,000). Antibody binding to viable cells (gMFI of PE on TO-PRO-3 negative cells) was analyzed by flow cytometry on a FACS Celesta and FACS_Diva software (first two experiments) or iQue® 3 and FlowJo software (last experiment). gMFI was determined and visualized using GraphPad Prism. Binding curves were analyzed using nonlinear regression analysis. The concentration (pg/mL) at which 50% of the maximal effect was observed (EC₅₀) was derived from the fitted curves.

[2] = target: T1, human FAPα (Fibroblast activation …); experiment: flow cytometry, Expi293F cells expressing human FAPα, n = 1
Method: as §1, §2

[3] = target: T2, human DR4 (Death Receptor 4), cell surface expressed on human tumor cell lines (human, UniProt O00220 24-468); experiment: flow cytometry, MDA-MB-231 cells, n = 1
T2 construct: also called TNFRSF10A; TRAIL-R1
T2 sequence: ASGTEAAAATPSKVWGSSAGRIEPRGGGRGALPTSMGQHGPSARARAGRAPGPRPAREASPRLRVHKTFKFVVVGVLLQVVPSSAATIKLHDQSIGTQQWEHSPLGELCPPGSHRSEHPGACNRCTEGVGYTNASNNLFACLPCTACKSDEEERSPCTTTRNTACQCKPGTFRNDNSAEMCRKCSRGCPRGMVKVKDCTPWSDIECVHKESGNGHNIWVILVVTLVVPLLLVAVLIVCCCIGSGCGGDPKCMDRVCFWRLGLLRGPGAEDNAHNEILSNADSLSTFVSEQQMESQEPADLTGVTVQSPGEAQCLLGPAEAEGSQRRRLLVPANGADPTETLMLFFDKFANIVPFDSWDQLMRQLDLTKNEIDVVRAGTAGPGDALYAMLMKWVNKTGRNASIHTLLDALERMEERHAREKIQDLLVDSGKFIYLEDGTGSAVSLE

[4] = target: T2, human DR4 (Death Receptor 4), cell …; experiment: flow cytometry, DLD-1 cells, average ± SEM
[5] = target: T2, human DR4 (Death Receptor 4), cell …; experiment: flow cytometry, A549 cells, average ± SEM
[6] = target: T2, human DR4 (Death Receptor 4), cell …; experiment: flow cytometry, A549 cells, n = 1
[7] = target: T2, human DR4 (Death Receptor 4), cell …; experiment: flow cytometry, HCT-15 cells, n = 2
[8] = target: T2, human DR4 (Death Receptor 4), cell …; experiment: flow cytometry, HCT-15 cells, n = 3
[9] = target: T2, human DR4 (Death Receptor 4), cell …; experiment: flow cytometry, HCT-15 cells, n = 1

| Binder | EC50 [1] | EC50 [2] | EC50 [3] | EC50 [4] | EC50 [5] | EC50 [6] | EC50 [7] | EC50 [8] | EC50 [9] |
| --- | --- | --- | --- | --- | --- | --- | --- | --- | --- |
| B1 | 0.61 µg/mL | 0.14 µg/mL | – | – | – | – | – | – | – |
| B2 | – | – | 1.14 µg/mL | 0.72 µg/mL | 0.78 µg/mL | 0.89 µg/mL | 0.57 µg/mL | 0.53 µg/mL | 0.59 µg/mL |
| B3 | 0.32 µg/mL | 0.11 µg/mL | – | – | – | – | – | – | – |
| B4 | – | – | 0.33 µg/mL | 0.26 µg/mL | 0.32 µg/mL | 0.51 µg/mL | 0.17 µg/mL | 0.15 µg/mL | 0.18 µg/mL |
